Measurements: article PMC8304084, “A Concerted Action of UBA5 C-Terminal Unstructured Regions Is Important for Transfer of Activated UFM1 to UFC1” (International Journal of Molecular Sciences, 2021)

Columns and labels:
[1] = target: Full length UBA5 (res. 1–404) C250K mutant stably conjugated to UFM1 (UniProt Q9GZZ9); experiment: ITC; UFC1 titrated to FL^1–404 and to FL^1–404 C250K~UFM1; 25 °C; 25 mM HEPES pH 7.5, 100 mM NaCl; one-site model
[2] = target: Full length UBA5, residues 1–404 (human) (UniProt Q9GZZ9); experiment: as above
[3] = target: Full length UFC1, residues 1–167 (UniProt Q9Y3C8); experiment: ITC; VP-ITC, 25 °C; UBA5 peptides (~400 µM) titrated into 20–25 µM binding partner; 25 mM HEPES pH 7.5, 100 mM NaCl; one-site model; a single profile for each interaction

Chain of Full length UBA5 (res. 1–404) C250K mutant stably conjugated to UFM1 (Q9GZZ9 whole entry C250K, chain 1 of 2, the tested form may be a part): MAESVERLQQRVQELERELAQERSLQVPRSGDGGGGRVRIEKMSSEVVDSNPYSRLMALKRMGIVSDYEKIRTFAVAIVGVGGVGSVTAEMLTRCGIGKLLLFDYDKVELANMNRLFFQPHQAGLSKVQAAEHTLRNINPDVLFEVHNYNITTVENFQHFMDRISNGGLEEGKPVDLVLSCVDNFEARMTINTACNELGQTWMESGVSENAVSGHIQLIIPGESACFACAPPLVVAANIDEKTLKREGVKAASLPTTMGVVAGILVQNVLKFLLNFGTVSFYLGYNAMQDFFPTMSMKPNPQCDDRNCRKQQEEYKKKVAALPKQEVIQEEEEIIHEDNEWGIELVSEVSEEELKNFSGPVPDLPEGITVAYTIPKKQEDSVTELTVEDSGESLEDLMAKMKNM
Chain of Full length UBA5 (res. 1–404) C250K mutant stably conjugated to UFM1 (P61960 other isoform, or with tags, fused parts or gaps C250K, chain 2 of 2, further chain): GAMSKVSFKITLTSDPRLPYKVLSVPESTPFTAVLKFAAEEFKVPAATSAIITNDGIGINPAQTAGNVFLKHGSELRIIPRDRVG
Chain of UBA5 C-terminal regions R2 and R3, residues 359–404 (Q9GZZ9 other isoform, or with tags, fused parts or gaps): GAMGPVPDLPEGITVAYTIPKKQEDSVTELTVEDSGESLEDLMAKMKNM
Chain of UBA5 C-terminal region R2, residues 359–376 (Q9GZZ9 other isoform, or with tags, fused parts or gaps): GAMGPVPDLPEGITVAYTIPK

Substance | Ka [3] | Kd [3] | dH [3] | stoichiometry N [3] | also measured
Full length UFC1, residues 1–167 (from UniProt Q9Y3C8 1-167) (enzyme) |  |  |  |  | Ka [1]: 870000 M⁻¹; Kd [1]: 1.2 µM; dH [1]: -8.21 kcal/mol; stoichiometry N [1]: 1.03; Ka [2]: 720000 M⁻¹; Kd [2]: 1.4 µM; dH [2]: -7.62 kcal/mol; stoichiometry N [2]: 0.97
UBA5 C-terminal part, residues 325–404 (from UniProt Q9GZZ9 325-404) (domain or fragment) | 410000 M⁻¹ | 2.4 µM | -7.04 kcal/mol | 1.03 | 
UBA5 C-terminal part with A371E mutant (res. 325–404) (from UniProt Q9GZZ9 325-404) (domain or fragment) | 600000 M⁻¹ | 1.6 µM | -7.78 kcal/mol | 1.03 | 
UBA5 C-terminal regions R2 and R3, residues 359–404 (from UniProt Q9GZZ9 359-404) (peptide) | 370000 M⁻¹ | 2.7 µM | -8.08 kcal/mol | 0.97 | 
UBA5 C-terminal part with A371T mutant (res. 325–404) (from UniProt Q9GZZ9 325-404) (domain or fragment) | 540000 M⁻¹ | 1.8 µM | -7.88 kcal/mol | 1.03 | 
UBA5 C-terminal region R2, residues 359–376 (from UniProt Q9GZZ9 359-376) (peptide) |  | > 50 µM |  |  | 
